According to US20130251703A1 (Novartis, published 2013):

B1: MOR13667 (antibody, human IgG1, lambda, V domains shown)
VH: QVQLVQSGAEVKKPGASVKVSCKASGYTFTSYDIHWVRQAPGQGLEWMGRIDPYSGNTNYAQKFQGRVTMTRDTSISTAYMELSRLRSEDTAVYYCARGSFYTRDSYFDVWGQGTLVTVSS
VL: DIALTQPASVSGSPGQSITISCTGTSSDVGTYNQVSWYQQHPGKAPKLMIYGVSKRPSGVSNRFSGSKSGNTASLTISGLQAEDEADYYCQAWDYRQTIVFGGGTKLTVLG
B2: MOR13660 (antibody, human IgG1, lambda, V domains shown)
VH: QVQLVQSGAEVKKPGASVKVSCKASGYTFTSYDIHWVRQAPGQGLEWMGRIDPYSGNTNYAQKFQGRVTMTRDTSISTAYMELSRLRSEDTAVYYCARGSFYTRDSYFDVWGQGTLVTVSS
VL: DIALTQPASVSGSPGQSITISCTGTSSDVGTYNQVSWYQQHPGKAPKLMIYGVSKRPSGVSNRFSGSKSGNTASLTISGLQAEDEADYYCAVRGSQTLVFGGGTKLTVLG
B3: MOR13656 (antibody, human IgG1, lambda, V domains shown)
VH: QVQLVQSGAEVKKPGASVKVSCKASGYTFTSYDIHWVRQAPGQGLEWMGRIDPYSGNTNYAQKFQGRVTMTRDTSISTAYMELSRLRSEDTAVYYCARGSFYTRDSYFDVWGQGTLVTVSS
VL: DIALTQPASVSGSPGQSITISCTGTSSDVGTYNQVSWYQQHPGKAPKLMIYGVSKRPSGVSNRFSGSKSGNTASLTISGLQAEDEADYYCAVRDSVWHVFGGGTKLTVLG
B4: MOR13661 (antibody, human IgG1, lambda, V domains shown)
VH: QVQLVQSGAEVKKPGASVKVSCKASGYTFTSYDIHWVRQAPGQGLEWMGRIDPYSGNTNYAQKFQGRVTMTRDTSISTAYMELSRLRSEDTAVYYCARGSFYTRDSYFDVWGQGTLVTVSS
VL: DIALTQPASVSGSPGQSITISCTGTSSDVGTYNQVSWYQQHPGKAPKLMIYGVSKRPSGVSNRFSGSKSGNTASLTISGLQAEDEADYYCGSRDSWAHVFGGGTKLTVLG
B5: MOR13669 (antibody, human IgG1, lambda, V domains shown)
VH: QVQLVQSGAEVKKPGASVKVSCKASGYTFTSYDIHWVRQAPGQGLEWMGRIDPYSGNTNYAQKFQGRVTMTRDTSISTAYMELSRLRSEDTAVYYCARGSFYTRDSYFDVWGQGTLVTVSS
VL: DIALTQPASVSGSPGQSITISCTGTSSDVGTYNQVSWYQQHPGKAPKLMIYGVSKRPSGVSNRFSGSKSGNTASLTISGLQAEDEADYYCSTATAMTVSLVFGGGTKLTVLG
B6: MOR13670 (antibody, human IgG1, lambda, V domains shown)
VH: QVQLVQSGAEVKKPGASVKVSCKASGYTFTSYDIHWVRQAPGQGLEWMGRIDPYSGNTNYAQKFQGRVTMTRDTSISTAYMELSRLRSEDTAVYYCARGSFYTRDSYFDVWGQGTLVTVSS
VL: DIALTQPASVSGSPGQSITISCTGTSSDVGTYNQVSWYQQHPGKAPKLMIYGVSKRPSGVSNRFSGSKSGNTASLTISGLQAEDEADYYCQVADQGWHQVFGGGTKLTVLG
B7: MOR13664 (antibody, human IgG1, lambda, V domains shown)
VH: QVQLVQSGAEVKKPGASVKVSCKASGYTFTSYDIHWVRQAPGQGLEWMGRIDPYSGNTNYAQKFQGRVTMTRDTSISTAYMELSRLRSEDTAVYYCARGSFYTRDSYFDVWGQGTLVTVSS
VL: DIALTQPASVSGSPGQSITISCTGTSSDVGTYNQVSWYQQHPGKAPKLMIYGVSKRPSGVSNRFSGSKSGNTASLTISGLQAEDEADYYCSAYDASTQVVFGGGTKLTVLG
B8: MOR13662 (antibody, human IgG1, lambda, V domains shown)
VH: QVQLVQSGAEVKKPGASVKVSCKASGYTFTSYDIHWVRQAPGQGLEWMGRIDPYSGNTNYAQKFQGRVTMTRDTSISTAYMELSRLRSEDTAVYYCARGSFYTRDSYFDVWGQGTLVTVSS
VL: DIALTQPASVSGSPGQSITISCTGTSSDVGTYNQVSWYQQHPGKAPKLMIYGVSKRPSGVSNRFSGSKSGNTASLTISGLQAEDEADYYCYSRAKTHWTDVFGGGTKLTVLG
B9: MOR13659 (antibody, human IgG1, lambda, V domains shown)
VH: QVQLVQSGAEVKKPGASVKVSCKASGYTFTSYDIHWVRQAPGQGLEWMGRIDPYSGNTNYAQKFQGRVTMTRDTSISTAYMELSRLRSEDTAVYYCARGSFYTRDSYFDVWGQGTLVTVSS
VL: DIALTQPASVSGSPGQSITISCTGTSSDVGTYNQVSWYQQHPGKAPKLMIYGVSKRPSGVSNRFSGSKSGNTASLTISGLQAEDEADYYCGSRTSHNWVFGGGTKLTVLG
B10: MOR13668 (antibody, human IgG1, lambda, V domains shown)
VH: QVQLVQSGAEVKKPGASVKVSCKASGYTFTSYDIHWVRQAPGQGLEWMGRIDPYSGNTNYAQKFQGRVTMTRDTSISTAYMELSRLRSEDTAVYYCARGSFYTRDSYFDVWGQGTLVTVSS
VL: DIALTQPASVSGSPGQSITISCTGTSSDVGTYNQVSWYQQHPGKAPKLMIYGVSKRPSGVSNRFSGSKSGNTASLTISGLQAEDEADYYCQVWDSDQAMVFGGGTKLTVLG
B11: MOR13665 (antibody, human IgG1, lambda, V domains shown)
VH: QVQLVQSGAEVKKPGASVKVSCKASGYTFTSYDIHWVRQAPGQGLEWMGRIDPYSGNTNYAQKFQGRVTMTRDTSISTAYMELSRLRSEDTAVYYCARGSFYTRDSYFDVWGQGTLVTVSS
VL: DIALTQPASVSGSPGQSITISCTGTSSDVGTYNQVSWYQQHPGKAPKLMIYGVSKRPSGVSNRFSGSKSGNTASLTISGLQAEDEADYYCQSAAIATSVFGGGTKLTVLG
B12: MOR13663 (antibody, human IgG1, lambda, V domains shown)
VH: QVQLVQSGAEVKKPGASVKVSCKASGYTFTSYDIHWVRQAPGQGLEWMGRIDPYSGNTNYAQKFQGRVTMTRDTSISTAYMELSRLRSEDTAVYYCARGSFYTRDSYFDVWGQGTLVTVSS
VL: DIALTQPASVSGSPGQSITISCTGTSSDVGTYNQVSWYQQHPGKAPKLMIYGVSKRPSGVSNRFSGSKSGNTASLTISGLQAEDEADYYCSVWTSIKVFVFGGGTKLTVLG

target: human HER3 endogenously expressed on human cancer cells (SK-Br-3, BT-474, MCF7) (human, UniProt P21860 20-1342); assay: cell-based or functional assay

Compared with B1, B2 is lower in “MCF7 pHER3 % inhibition” value: 72% for the first, 49% for the second.

Compared with B3, B4 is lower in “MCF7 pHER3 % inhibition” value: 73% for the first, 55% for the second.

First: B5
Second: B6
The “MCF7 pHER3 % inhibition” value of the first is lower: 66% for the first, 69% for the second.

First: B7
Second: B8
The “MCF7 pHER3 % inhibition” value of the first is higher: 55% for the first, 52% for the second.

Going from B9 to B10, the “MCF7 pHER3 % inhibition” value rises from 66% to 77%.

Compared with B11, B12 is lower in “MCF7 pHER3 % inhibition” value: 62% for the first, 58% for the second.

Going from B1 to B2, the “MCF7 pHER3 IC50” value falls from 603 pM to 533 pM.

Going from B3 to B4, the “MCF7 pHER3 IC50” value rises from 504 pM to 649 pM.

Going from B6 to B7, the “MCF7 pHER3 IC50” value falls from 643 pM to 480 pM.

Going from B8 to B9, the “MCF7 pHER3 IC50” value falls from 550 pM to 505 pM.

Compared with B10, B11 is lower in “MCF7 pHER3 IC50” value: 1640 pM for the first, 795 pM for the second.

B12 was tested, and the “MCF7 pHER3 IC50” value was 449 pM.

Compared with B1, B2 is lower in “SK-Br-3 pHER3 % inhibition” value: 59% for the first, 54% for the second.

Going from B3 to B4, the “SK-Br-3 pHER3 % inhibition” value falls from 60% to 55%.

Going from B5 to B6, the “SK-Br-3 pHER3 % inhibition” value rises from 58% to 60%.

Going from B7 to B8, the “SK-Br-3 pHER3 % inhibition” value falls from 57% to 56%.

First: B9
Second: B10
The “SK-Br-3 pHER3 % inhibition” value of the first is lower: 51% for the first, 58% for the second.

Compared with B11, B12 is lower in “SK-Br-3 pHER3 % inhibition” value: 59% for the first, 56% for the second.

First: B1
Second: B2
The “SK-Br-3 pHER3 IC50” value of the first is higher: 267 pM for the first, 188 pM for the second.

First: B3
Second: B4
The “SK-Br-3 pHER3 IC50” value of the first is lower: 86 pM for the first, 421 pM for the second.

Going from B5 to B6, the “SK-Br-3 pHER3 IC50” value falls from 743 pM to 730 pM.

Compared with B7, B8 is lower in “SK-Br-3 pHER3 IC50” value: 388 pM for the first, 331 pM for the second.

Compared with B9, B10 is higher in “SK-Br-3 pHER3 IC50” value: 277 pM for the first, 657 pM for the second.

Compared with B11, B12 is lower in “SK-Br-3 pHER3 IC50” value: 546 pM for the first, 290 pM for the second.
